According to patent US20190322984A1 (MUSC FOUNDATION FOR RESEARCH DEVELOPMENT, published 2019):

Molecular target: T1, mouse IL-2Rα on mouse effector CD8+ T cells (mouse, UniProt P01590 22-268)
T1 construct: whole, on cells; also called mIL-2Rα; CD25
T1 sequence (looked up): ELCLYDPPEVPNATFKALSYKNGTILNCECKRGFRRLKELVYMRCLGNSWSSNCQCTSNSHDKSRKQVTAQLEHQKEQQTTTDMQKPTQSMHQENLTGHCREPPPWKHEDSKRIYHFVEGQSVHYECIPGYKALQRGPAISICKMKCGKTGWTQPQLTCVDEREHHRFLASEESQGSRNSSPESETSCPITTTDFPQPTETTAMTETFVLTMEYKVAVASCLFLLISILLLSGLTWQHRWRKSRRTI
Assay: flow cytometry, surface IL-2 staining of mIL-2-pulsed polyclonal effector CD8+ T cells
Procedure: FIGS. 3a-3g—IL-2Rα facilitates sustained IL-2 signaling through creation of an extracellular reservoir and recycling. (a) Presence of IL-2 on the surface of polyclonal T cells depends on IL-2Rα. Polyclonal effector CD8⁺ T cells were pulsed for 2 hours with or without mIL-2. Prior to (and during) the pulse, T cells were incubated with anti-IL-2Rα mAb (PC61). Cells were then washed and stained for surface IL-2. (b) Time course of surface IL-2 on polyclonal T cells after reculture at 37° C. (c) Levels of pSTAT5 in Tc1 cells that were pulsed with IL-2, washed, and recultured at 37° C. with or without anti-IL-2 mAb (clone S4B6 or 1A12). (d) Recycling of IL-2 on effector T cells. Pmel-1 Tc1 cells were incubated with hIL-2 or mIL-2 at 37° C. for 2 hours. As indicated, cells were then acid washed and recultured at 37° C. for 90 minutes in the presence of anti-hIL-2 mAb conjugated to Alexa647. Cells were then washed, fixed, and assayed by flow cytometry. (e) Recycling of IL-2 on pulsed cells while mixed with non-pulsed cells. Pmel-1 Tc1 cells were pulsed with hIL-2 at either 4° C. or 37° C. for 2 hours, and then acid washed. Cells were then mixed with non-pulsed CFSE-labeled Tc1 cells. The mixed cells were recultured at 37° C. for 45 minutes in the presence of anti-hIL-2 mAb conjugated to Alexa647. Cells were then washed, fixed, and assayed by flow cytometry. […]

binding result: binds
B1: Mouse (m) IL-2 (ligand, UniProt P04351 21-169, looked up)
chain: APTSSSTSSSTAEAQQQQQQQQQQQQHLEQLLMDLQELLSRMENYRNLKLPRMLTFKFYLPKQATELKDLQCLEDELGPLRHVLDLTQSKSFQLEDAENFISNIRVTVVKLKGSDNTFECQFDDESATVVDFLRRWIAFCQSIISTSPQ
notes: Bought recombinant cytokine; used at 200 ng/ml in pulse assays; also called mouse IL-2
